For one assay, the target named is T1, Mcm2 (yeast, UniProt P29469).
T1 sequence: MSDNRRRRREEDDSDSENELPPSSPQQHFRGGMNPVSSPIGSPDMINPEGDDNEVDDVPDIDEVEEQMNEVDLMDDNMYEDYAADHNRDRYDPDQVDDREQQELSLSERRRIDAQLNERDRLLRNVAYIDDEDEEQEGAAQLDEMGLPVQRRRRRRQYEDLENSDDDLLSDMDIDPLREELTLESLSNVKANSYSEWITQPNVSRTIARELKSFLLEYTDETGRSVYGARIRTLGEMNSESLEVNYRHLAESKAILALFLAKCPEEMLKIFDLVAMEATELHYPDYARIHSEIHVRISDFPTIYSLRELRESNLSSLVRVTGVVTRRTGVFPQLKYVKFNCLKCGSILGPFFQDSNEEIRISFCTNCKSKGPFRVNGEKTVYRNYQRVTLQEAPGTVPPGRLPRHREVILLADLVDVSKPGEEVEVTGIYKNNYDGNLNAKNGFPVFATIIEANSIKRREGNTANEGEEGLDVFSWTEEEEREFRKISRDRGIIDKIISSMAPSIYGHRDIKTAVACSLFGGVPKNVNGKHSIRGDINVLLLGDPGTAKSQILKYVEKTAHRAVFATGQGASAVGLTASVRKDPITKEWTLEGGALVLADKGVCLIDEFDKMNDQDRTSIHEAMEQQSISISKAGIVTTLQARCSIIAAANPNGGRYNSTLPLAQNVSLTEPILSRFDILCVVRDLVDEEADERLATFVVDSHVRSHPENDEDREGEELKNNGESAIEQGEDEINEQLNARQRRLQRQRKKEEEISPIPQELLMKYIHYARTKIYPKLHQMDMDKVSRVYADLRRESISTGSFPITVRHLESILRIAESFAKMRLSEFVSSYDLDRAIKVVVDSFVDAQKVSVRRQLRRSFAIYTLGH
Kind of assay: cryo-EM structure.

The target in another assay is T2, Mcm5 (yeast, UniProt P29496).
T2 sequence: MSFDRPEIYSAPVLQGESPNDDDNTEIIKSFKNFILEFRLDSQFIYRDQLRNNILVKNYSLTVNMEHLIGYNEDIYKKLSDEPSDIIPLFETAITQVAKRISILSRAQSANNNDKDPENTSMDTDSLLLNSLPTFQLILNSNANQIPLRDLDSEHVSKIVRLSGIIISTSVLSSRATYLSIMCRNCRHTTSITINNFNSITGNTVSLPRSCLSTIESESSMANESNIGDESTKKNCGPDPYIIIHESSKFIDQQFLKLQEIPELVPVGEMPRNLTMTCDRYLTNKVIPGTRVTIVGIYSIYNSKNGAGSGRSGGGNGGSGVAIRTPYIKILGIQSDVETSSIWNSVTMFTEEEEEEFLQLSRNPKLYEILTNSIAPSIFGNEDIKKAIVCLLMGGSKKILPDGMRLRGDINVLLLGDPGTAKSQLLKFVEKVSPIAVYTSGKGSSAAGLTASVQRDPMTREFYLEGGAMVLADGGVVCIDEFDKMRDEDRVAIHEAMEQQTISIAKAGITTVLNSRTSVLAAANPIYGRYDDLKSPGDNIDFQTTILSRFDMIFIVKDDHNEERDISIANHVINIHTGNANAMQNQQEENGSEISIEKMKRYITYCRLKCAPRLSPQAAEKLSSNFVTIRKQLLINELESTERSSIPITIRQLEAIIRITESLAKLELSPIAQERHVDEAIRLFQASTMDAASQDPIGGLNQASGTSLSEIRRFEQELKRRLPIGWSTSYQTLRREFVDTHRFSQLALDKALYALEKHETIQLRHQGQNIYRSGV
Kind of assay: cryo-EM structure.

In assay [1] the target is origin recognition complex (ORC) (yeast, UniProt P54784;P32833;P54790;P54791;P50874;P38826). Kind of assay: cryo-EM 2D class averages.

The text below walks through data of article PMC6887548 (Nature, 2019).

B1: Orc6 (natural protein)
chain: MSMQQVQHCVAEVLRLDPQEKPDWSSGYLKKLTNATSILYNTSLNKVMLKQDEEVARCHICAYIASQKMNEKHMPDLCYYIDSIPLEPKKAKHLMNLFRQSLSNSSPMKQFAWTPSPKKNKRSPVKNGGRFTSSDPKELRNQLFGTPTKVRKSQNNDSFVIPELPPMQTNESPSITRRKLAFEEDEDEDEEEPGNDGLSLKSHSNKSITGTRNVDSDEYENHESDPTSEEEPLGVQESRSGRTKQNKAVGKPQSELKTAKALRKRGRIPNSLLVKKYCKMTTEEIIRLCNDFELPREVAYKIVDEYNINASRLVCPWQLVCGLVLNCTFIVFNERRRKDPRIDHFIVSKMCSLMLTSKVDDVIECVKLVKELIIGEKWFRDLQIRYDDFDGIRYDEIIFRKLGSMLQTTNILVTDDQYNIWKKRIEMDLALTEPL
Consider B1, for which the binding result with Mcm2 and in the assay with Mcm5 was “binds” each time.

B2: Cdc6 (natural protein)
chain: MSAIPITPTKRIRRNLFDDAPATPPRPLKRKKLQFTDVTPESSPEKLQFGSQSIFLRTKALLQKSSELVNLNSSDGALPARTAEYEQVMNFLAKAISEHRSDSLYITGPPGTGKTAQLDMIIRQKFQSLPLSLSTPRSKDVLRHTNPNLQNLSWFELPDGRLESVAVTSINCISLGEPSSIFQKIFDSFQDLNGPTLQIKNMQHLQKFLEPYHKKTTFVVVLDEMDRLLHANTSETQSVRTILELFLLAKLPTVSFVLIGMANSLDMKDRFLSRLNLDRGLLPQTIVFQPYTAEQMYEIVIQKMSSLPTIIFQPMAIKFAAKKCAGNTGDLRKLFDVLRGSIEIYELEKRFLLSPTRGSLNSAQVPLTPTTSPVKKSYPEPQGKIGLNYIAKVFSKFVNNNSTRTRIAKLNIQQKLILCTIIQSLKLNSDATIDESFDHYIKAITKTDTLAPLQRNEFLEICTILETCGLVSIKKTKCKGKTKRFVDKIDVDLDMREFYDEMTKISILKPFLH
As to B2, the binding result in assay [1] was “binds”.
